Experimental findings from paper PMC11278340 are described below.

Series [1] addresses T1, murine CCL22 (Mus musculus, UniProt O88430 25-92).
T1 sequence: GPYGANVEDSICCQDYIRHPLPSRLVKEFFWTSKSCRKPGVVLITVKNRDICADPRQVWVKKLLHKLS
Nature of the series: flow cytometry on CCL22 beads. A general note: In flow cytometry, cells or beads pass a laser one at a time.

The next series deals with human CCL17 (Homo sapiens, UniProt Q92583 24-94). Nature of the series: ELONA.
For the next series, the target named is T2, murine CCL17 (Mus musculus, UniProt Q9WUZ6 24-93).
T2 sequence: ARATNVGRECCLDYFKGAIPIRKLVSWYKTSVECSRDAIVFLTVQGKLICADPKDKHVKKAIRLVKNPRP
Put plainly: ELONA.

Another series concerns the target T3, human CCL22 (Homo sapiens, UniProt O00626 25-93).
T3 sequence: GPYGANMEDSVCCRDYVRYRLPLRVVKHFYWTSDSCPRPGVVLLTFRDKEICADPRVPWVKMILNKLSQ
Put plainly: ELONA.

Series [2] has as its target T1, murine CCL22. Put plainly: SPR. In general terms: In SPR one partner is held on a chip, and binding of the other changes the refractive index at the surface.

Chain of human CCL17 (Q92583 24-94): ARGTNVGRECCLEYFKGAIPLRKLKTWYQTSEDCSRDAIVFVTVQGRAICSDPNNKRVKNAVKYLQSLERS

The Kd is a measure of binding affinity in units of concentration. A high value points to a looser complex. As for TAGGCGAGTGTGGGTGGGTGGGCGTTCTC (ssDNA) [AJ102.29], in the series with murine CCL22 [1], the Kd was 63.6 nM.

B1: AJ82 (ssDNA)
DNA: GCTGTGTGACTCCTGCAAGCTGTGGAGTCGTCGTTCGGGTTATGGGGGATGGGGTTGAGTGGCAGCTGTATCTTGTCTCC
Turning to B1, the Kd came out at 146 nM in the series with murine CCL22 [1] and 24.8 nM with murine CCL22 [2]. Besides, the binding result with human CCL17, with murine CCL17 and with human CCL22 was “no binding” in each case.

B2: AJ102 (ssDNA)
DNA: GCTGTGTGACTCCTGCAATAGGCGAGTGTGGGTGGGTGGGCGTTCTCAGTGGTTCTCAGTAGCAGCTGTATCTTGTCTCC
In the case of B2, the values for the Kd in the series with murine CCL22 [1] and with murine CCL22 [2] were 147 nM and 10.7 nM, respectively. Besides, the binding result with human CCL17, in the series with murine CCL17 and in the series with human CCL22 was “no binding” throughout.
